Laboratory results taken from FireProtDB (doi:10.1016/s0022-2836(03)00249-3).
Where “and” joins values, the source holds several entries; their conditions need not be identical. Equal values may be shown once.

Conditions: Saccharomyces cerevisiae (strain ATCC 204508 / S288c), 25 °C, GdnHCl, reversible: yes, whole UniProt chain shown
[1] = pH 7, Fluorescence, Tris-HCl 50 mM, NaCl 0.2 M, transition: 2
[2] = pH 7.5, Fluorescence, Tris-HCl 50 mM, NaCl 0.2 M, transition: 2
[3] = pH 7.5, Fluorescence, Tris-phosphate 50 mM, NaCl 0.2 M, transition: 2
[4] = pH 8, CD, Na2HPO4-KH2PO4 50 mM, NaCl 0.15 M, transition: 3
[5] = pH 8, Fluorescence, Na2HPO4-KH2PO4 50 mM, NaCl 0.15 M, transition: 2
[6] = pH 8, Fluorescence, Tris-HCl 50 mM, NaCl 0.2 M, transition: 2
[7] = pH 8, Fluorescence, Tris-HCl 50 mM, NaCl 0.2 M, transition: 3
[8] = pH 8.4, Fluorescence, Tris-HCl 50 mM, NaCl 0.2 M, transition: 2
[9] = pH 8.5, Fluorescence, Na2HPO4-KH2PO4 50 mM, NaCl 0.15 M, transition: 2

B1: Transcriptional regulator URE2 wild type, P23202 (protein)
chain: MMNNNGNQVSNLSNALRQVNIGNRNSNTTTDQSNINFEFSTGVNNNNNNNSSSNNNNVQNNNSGRNGSQNNDNENNIKNTLEQHRQQQQAFSDMSHVEYSRITKFFQEQPLEGYTLFSHRSAPNGFKVAIVLSELGFHYNTIFLDFNLGEHRAPEFVSVNPNARVPALIDHGMDNLSIWESGAILLHLVNKYYKETGNPLLWSDDLADQSQINAWLFFQTSGHAPMIGQALHFRYFHSQKIASAVERYTDEVRRVYGVVEMALAERREALVMELDTENAAAYSAGTTPMSQSRFFDYPVWLVGDKLTIADLAFVPWNNVVDRIGINIKIEFPEVYKWTKHMMRRPAVIKALRGE
denaturant m value [1]: 3.2 kcal/mol/M | denaturant midpoint (higher = more stable) [1]: 2.4 M | unfolding free energy [1]: 17 kcal/mol | unfolding free energy (pH 7, Fluorescence, Tris-HCl 50 mM, NaCl 0.2 M, transition: 3): 7.9 kcal/mol | denaturant m value [2]: 3.6 kcal/mol/M | denaturant midpoint (higher = more stable) [2]: 2.64 M | unfolding free energy [2]: 20 kcal/mol | unfolding free energy (pH 7.5, Fluorescence, Tris-HCl 50 mM, NaCl 0.2 M, transition: 3): 8.8 kcal/mol and 8.5 kcal/mol and 8.9 kcal/mol | denaturant m value [3]: 4.8 kcal/mol/M and 5.2 kcal/mol/M | denaturant midpoint (higher = more stable) [3]: 2.66 M and 2.53 M | unfolding free energy [3]: 21 kcal/mol and 22 kcal/mol | unfolding free energy (pH 7.5, Fluorescence, Tris-phosphate 50 mM, NaCl 0.2 M, transition: 3): 9 kcal/mol | denaturant midpoint (higher = more stable) [4]: 2.33 M and 3.54 M | unfolding free energy [4]: 7 kcal/mol | denaturant m value [5]: 4 kcal/mol/M | denaturant midpoint (higher = more stable) [5]: 2.48 M | unfolding free energy [5]: 19 kcal/mol | unfolding free energy (pH 8, Fluorescence, Na2HPO4-KH2PO4 50 mM, NaCl 0.15 M, transition: 3): 6.9 kcal/mol and 6.8 kcal/mol | denaturant m value [6]: 3 kcal/mol/M and 4.1 kcal/mol/M and 6 kcal/mol/M | denaturant midpoint (higher = more stable) [6]: 3 M and 2.84 M and 2.66 M | unfolding free energy [6]: 16 kcal/mol and 19 kcal/mol | denaturant m value [7]: 8 kcal/mol/M and 3 kcal/mol/M | denaturant midpoint (higher = more stable) [7]: 3.23 M and 2.67 M | unfolding free energy [7]: 8 kcal/mol | denaturant m value [8]: 5 kcal/mol/M and 5.5 kcal/mol/M and 6.8 kcal/mol/M | denaturant midpoint (higher = more stable) [8]: 3.06 M and 2.95 M and 2.93 M | unfolding free energy [8]: 23 kcal/mol and 24 kcal/mol | denaturant m value [9]: 5 kcal/mol/M | denaturant midpoint (higher = more stable) [9]: 2.57 M | unfolding free energy [9]: 22 kcal/mol | unfolding free energy (pH 8.5, Fluorescence, Na2HPO4-KH2PO4 50 mM, NaCl 0.15 M, transition: 3): 7.6 kcal/mol and 7.4 kcal/mol and 7.5 kcal/mol
